This note sets out measurements from PMC3869376, “Inflammation produces catecholamine resistance in obesity via activation of PDE3B by the protein kinases IKKε and TBK1” (eLife, 2013).

For this assay, the target named is T1, HA-PDE3B (human) phosphorylated by co-expressed Flag-TBK1 (human, UniProt Q13370 1-1112, phosphorylated by co-expressed TBK1; serines 22, 299, 318, 381, 463, 467 and 503 found phosphorylated by LC-MS/MS (HA-PDE3B from Cos-1 cells)).
T1 construct: Phosphodiesterase 3B (PDE3B), human cDNA (from Dr Morris Birnbaum); The phosphorylation sites were mapped in Cos-1 cells; also called phosphorylated PDE3B; the wild-type protein; source: HEK293T, transfected together with Flag-TBK1, in lysate; immunoprecipitated for the overlay
T1 sequence (Q13370 whole entry): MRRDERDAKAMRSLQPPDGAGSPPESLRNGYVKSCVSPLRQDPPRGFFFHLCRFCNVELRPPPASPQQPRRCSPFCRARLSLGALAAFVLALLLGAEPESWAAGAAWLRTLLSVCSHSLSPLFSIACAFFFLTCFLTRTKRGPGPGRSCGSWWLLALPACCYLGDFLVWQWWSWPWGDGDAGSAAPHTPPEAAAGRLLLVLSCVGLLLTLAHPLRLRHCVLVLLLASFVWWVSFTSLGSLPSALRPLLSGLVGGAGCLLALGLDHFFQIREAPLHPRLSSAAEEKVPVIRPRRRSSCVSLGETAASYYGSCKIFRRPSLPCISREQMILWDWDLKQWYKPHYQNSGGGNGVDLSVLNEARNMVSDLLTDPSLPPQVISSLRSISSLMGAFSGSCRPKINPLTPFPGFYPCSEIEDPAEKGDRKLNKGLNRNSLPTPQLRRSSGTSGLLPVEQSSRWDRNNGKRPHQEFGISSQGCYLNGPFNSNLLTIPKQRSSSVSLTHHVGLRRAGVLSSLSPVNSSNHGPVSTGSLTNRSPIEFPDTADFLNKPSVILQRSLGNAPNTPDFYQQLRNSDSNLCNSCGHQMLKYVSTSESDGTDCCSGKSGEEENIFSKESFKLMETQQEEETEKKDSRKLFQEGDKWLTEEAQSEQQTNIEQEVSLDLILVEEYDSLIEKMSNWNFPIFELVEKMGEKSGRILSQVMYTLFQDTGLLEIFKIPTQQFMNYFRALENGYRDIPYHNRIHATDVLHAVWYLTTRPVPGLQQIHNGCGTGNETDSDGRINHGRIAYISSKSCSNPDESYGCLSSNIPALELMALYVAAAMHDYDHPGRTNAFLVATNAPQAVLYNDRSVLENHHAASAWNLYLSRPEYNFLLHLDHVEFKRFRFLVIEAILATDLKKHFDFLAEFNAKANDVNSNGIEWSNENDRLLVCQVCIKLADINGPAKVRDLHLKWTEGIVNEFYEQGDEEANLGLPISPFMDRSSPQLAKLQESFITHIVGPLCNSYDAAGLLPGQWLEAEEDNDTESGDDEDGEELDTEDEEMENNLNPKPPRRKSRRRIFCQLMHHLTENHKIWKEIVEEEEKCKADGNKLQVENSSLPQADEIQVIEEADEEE
In words: pull-down; GST or GST-14-3-3β on glutathione beads incubated 1.5 hr at 4°C with cleared lysates of HEK293T cells co-expressing HA-PDE3B and Flag-TBK1 or K38A; PD buffer 15 mM Tris pH 7.5, 150 mM NaCl, 0.5% NP-40, 1 mM DTT. The following applies: one partner purified.

B1: GST-14-3-3β fusion protein (natural protein, human, UniProt P31946 1-246, looked up)
chain: MTMDKSELVQKAKLAEQAERYDDMAAAMKAVTEQGHELSNEERNLLSVAYKNVVGARRSSWRVISSIEQKTERNEKKQQMGKEYREKIEAELQDICNDVLELLDKYLIPNATQPESKVFYLKMKGDYFRYLSEVASGDNKQTTVSNSQQAYQEAFEISKKEMQPTHPIRLGLALNFSVFYYEILNSPEKACSLAKTAFDEAIAELDTLNEESYKDSTLIMQLLRDNLTLWTSENQGDEGDAGEGEN
modifications: DIG-labelled (DIG-NHS) in the overlay assay only
notes: 14-3-3β, human cDNA (from Dr Ken Inoki) subcloned into pGEX-4T-1; source: eluted with glutathione for the overlay
On to B1, for which the binding result is reported as “binds”.
